The text below walks through data of PMC7211935, “Development of a therapeutic anti-HtrA1 antibody and the identification of DKK3 as a pharmacodynamic biomarker in geographic atrophy” (Proceedings of the National Academy of Sciences of the …, 2020).

Common to all, as to test: SEC; E. coli-expressed and purified human HtrA1- to 4-PD/PDZ constructs, purified as homotrimers by size-exclusion chromatography; conditions not shown (SI Appendix)
Data set [1] concerns the target human HtrA2-PD/PDZ (protease domain and PDZ domain) (human).
Data set [2] concerns the target human HtrA1-PD/PDZ (N domain-deleted HtrA1, protease domain and PDZ domain) (human).
Data set [3] deals with the molecule itself.

“human HtrA2-PD/PDZ (protease domain and PDZ domain) (domain or fragment)”: in data set [1], the stoichiometry N stood at 3.
As for “human HtrA1-PD/PDZ (N domain-deleted HtrA1, protease domain and PDZ domain) (domain or fragment)”, the stoichiometry N in data set [2] was 3.

B1: human HtrA3-PD/PDZ (protease domain and PDZ domain) (domain or fragment)
chain: GLHQLSSPRYKFNFIADVVEKIAPAVVHIELFLRHPLFGRNVPLSSGSGFIMSEAGLIITNAHVVSSNSAAPGRQQLKVQLQNGDSYEATIKDIDKKSDIATIKIHPKKKLPVLLLGHSADLRPGEFVVAIGSPFALQNTVTTGIVSTAQREGRELGLRDSDMDYIQTDAIINYGNSGGPLVNLDGEVIGINTLKVTAGISFAIPSDRITRFLTEFQDKQIKDWKKRFIGIRMRTITPSLVDELKASNPDFPEVSSGIYVQEVAPNSPSQRGGIQDGDIIVKVNGRPLVDSSELQEAVLTESPLLLEVRRGNDDLLFSIAPEVVM
Consider B1, for which, in data set [3], the “stoichiometry N” value was 3.

B2: human HtrA4-PD/PDZ (protease domain and PDZ domain) (domain or fragment)
chain: TGTRSAGPLRRNYNFIAAVVEKVAPSVVHVQLWGRLLHGSRLVPVYSGSGFIVSEDGLIITNAHVVRNQQWIEVVLQNGARYEAVVKDIDLKLDLAVIKIESNAELPVLMLGRSSDLRAGEFVVALGSPFSLQNTATAGIVSTKQRGGKELGMKDSDMDYVQIDATINYGNSGGPLVNLDGDVIGVNSLRVTDGISFAIPSDRVRQFLAEYHEHQMKGKAFSNKKYLGLQMLSLTVPLSEELKMHYPDFPDVSSGVYVCKVVEGTAAQSSGLRDHDVIVNINGKPITTTTDVVKALDSDSLSMAVLRGKDNLLLTVIPETIN
Turning to B2, the “stoichiometry N” value in data set [3] was 3.

The term stoichiometry N denotes the number of molecules, sites or subunits per partner or assembly.
